Assay results: the supplement of paper PMC10567573

B1: TRAF3IP2 (parent)
chain: KQGSMNFRFIPVLFPNAKKEHVPT
B2: SOAT1 (parent)
chain: PSNGRIDIKQLIAKKIKLTAEAEE

Variants of: B1
Assay: protein stability index of a GFP-peptide fusion (GPS, HEK-293T) (PSI 1-6); higher = more stable
Details: c terminus: a fixed tail appended
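Note: lentivirally expressed fusions sorted by FACS into six bins by GFP to DsRed ratio, PSI derived from sequencing read proportions per bin multiplied by bin number.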

**Q.** For KQGSMNFPFIPVLFPNAKKEHVPT [R8P], which protein stability index is on record?
**A.** 2.68

**Q.** Which protein stability index does the source give for KQGSMNFQFIPVLFPNAKKEHVPT [R8Q] here?
**A.** 3.08

**Q.** With KQGSMNFKFIPVLFPNAKKEHVPT [R8K] as the variant, how does the protein stability index read?
**A.** 2.61

**Q.** Which protein stability index does the source give for KQGSMNFEFIPVLFPNAKKEHVPT [R8E] here?
**A.** 3.28

**Q.** Which protein stability index does the source give for KQGSMNFYFIPVLFPNAKKEHVPT [R8Y] here?
**A.** 2.09

**Q.** Which protein stability index does the source give for KQGSMNFWFIPVLFPNAKKEHVPT [R8W] here?
**A.** 2.44

**Q.** For KQGSMNFMFIPVLFPNAKKEHVPT [R8M], which protein stability index is on record?
**A.** 1.88

**Q.** Which protein stability index does the source give for KQGSMNFAFIPVLFPNAKKEHVPT [R8A] here?
**A.** 1.78

**Q.** With KQGSCNFRFIPVLFPNAKKEHVPT [M5C] as the variant, how does the protein stability index read?
**A.** 1.98

**Q.** With KQGSTNFRFIPVLFPNAKKEHVPT [M5T] as the variant, how does the protein stability index read?
**A.** 2.5

**Q.** Which protein stability index does the source give for KQGSKNFRFIPVLFPNAKKEHVPT [M5K] here?
**A.** 2.8

**Q.** Which protein stability index does the source give for KQGSRNFRFIPVLFPNAKKEHVPT [M5R] here?
**A.** 2.2

**Q.** For KQGSDNFRFIPVLFPNAKKEHVPT [M5D], which protein stability index is on record?
**A.** 3.35

**Q.** With KQGSMNFRFIPVLFPNKKKEHVPT [A17K] as the variant, how does the protein stability index read?
**A.** 1.82

**Q.** Which protein stability index does the source give for KQGSMNFRFIPVLFPNVKKEHVPT [A17V] here?
**A.** 1.61

**Q.** For KQGSMNFRFIPVLFPNYKKEHVPT [A17Y], which protein stability index is on record?
**A.** 1.72

**Q.** For KQGSMNFRFIPVLFPNNKKEHVPT [A17N], which protein stability index is on record?
**A.** 2

**Q.** For KQGSMNFRFIPVLFPNLKKEHVPT [A17L], which protein stability index is on record?
**A.** 1.89

**Q.** With KQGSMNFRFIPVLFPNIKKEHVPT [A17I] as the variant, how does the protein stability index read?
**A.** 1.8

**Q.** For KQGSMNFRFIPVLFPNHKKEHVPT [A17H], which protein stability index is on record?
**A.** 1.92

**Q.** With KQGSMNFRFIPVLFPNGKKEHVPT [A17G] as the variant, how does the protein stability index read?
**A.** 2.18

**Q.** For KQGSMNFRFIPVLFPNWKKEHVPT [A17W], which protein stability index is on record?
**A.** 1.74

**Q.** For KQGSMNFRFIPVLFPNPKKEHVPT [A17P], which protein stability index is on record?
**A.** 2.07

**Q.** For KQGSMNFRFIPVLFPNTKKEHVPT [A17T], which protein stability index is on record?
**A.** 2.86

**Q.** Which protein stability index does the source give for KQGSMNFRFIPVLFPNCKKEHVPT [A17C] here?
**A.** 1.97

**Q.** For KQLSMNFRFIPVLFPNAKKEHVPT [G3L], which protein stability index is on record?
**A.** 1.67

**Q.** For KQFSMNFRFIPVLFPNAKKEHVPT [G3F], which protein stability index is on record?
**A.** 3.01

**Q.** Which protein stability index does the source give for KQCSMNFRFIPVLFPNAKKEHVPT [G3C] here?
**A.** 2.06

**Q.** For KQMSMNFRFIPVLFPNAKKEHVPT [G3M], which protein stability index is on record?
**A.** 1.75

**Q.** Which protein stability index does the source give for KQWSMNFRFIPVLFPNAKKEHVPT [G3W] here?
**A.** 2.25

**Q.** For KQGSMNFRFIPVLFPNAKKEHVWT [P23W], which protein stability index is on record?
**A.** 2.58

**Q.** For KQGSMNFRFIPVLFPNAKKEHVRT [P23R], which protein stability index is on record?
**A.** 2.05

**Q.** With KQGSMNFRFIPVLFPNAKKEHVTT [P23T] as the variant, how does the protein stability index read?
**A.** 2.27

**Q.** For KQGSMNFRFIPVLFPNAKKEHVET [P23E], which protein stability index is on record?
**A.** 2.19

**Q.** With KQGSMNFRFIPVLFPNAKKEHVLT [P23L] as the variant, how does the protein stability index read?
**A.** 2.16

**Q.** Which protein stability index does the source give for KQGSMNFRFIPVLFPNAKKEHVQT [P23Q] here?
**A.** 1.69

**Q.** For KQGSMNFRFIPVLFPNAKKEHVFT [P23F], which protein stability index is on record?
**A.** 1.79

**Q.** Which protein stability index does the source give for KQGSMNFRFIPVLFPNAKKEHVYT [P23Y] here?
**A.** 1.84

**Q.** With KQGSMNFRFIPVLFPNAKKEHVNT [P23N] as the variant, how does the protein stability index read?
**A.** 1.86

**Q.** With KQGSMNFRFIPVLFPNAKKEHVST [P23S] as the variant, how does the protein stability index read?
**A.** 1.88

**Q.** For KQGSMNFRFIPVLFPNAKKEHVVT [P23V], which protein stability index is on record?
**A.** 1.4

**Q.** For KQGSMNFRFGPVLFPNAKKEHVPT [I10G], which protein stability index is on record?
**A.** 2.76

**Q.** Which protein stability index does the source give for KQGSMNFRFKPVLFPNAKKEHVPT [I10K] here?
**A.** 2.56

**Q.** With KQGSMNFRFFPVLFPNAKKEHVPT [I10F] as the variant, how does the protein stability index read?
**A.** 2.11

**Q.** With KQGSMNFRFDPVLFPNAKKEHVPT [I10D] as the variant, how does the protein stability index read?
**A.** 3.37

**Q.** Which protein stability index does the source give for KQGSMNFRFHPVLFPNAKKEHVPT [I10H] here?
**A.** 1.67

**Q.** For KQGSMNFRFCPVLFPNAKKEHVPT [I10C], which protein stability index is on record?
**A.** 2.3

**Q.** For KQGSMWFRFIPVLFPNAKKEHVPT [N6W], which protein stability index is on record?
**A.** 1.83

**Q.** Which protein stability index does the source give for KQGSMYFRFIPVLFPNAKKEHVPT [N6Y] here?
**A.** 2.14

**Q.** Which protein stability index does the source give for KQGSMTFRFIPVLFPNAKKEHVPT [N6T] here?
**A.** 1.96

**Q.** For KQGSMEFRFIPVLFPNAKKEHVPT [N6E], which protein stability index is on record?
**A.** 2.1

**Q.** For KQGSMSFRFIPVLFPNAKKEHVPT [N6S], which protein stability index is on record?
**A.** 1.96

**Q.** Which protein stability index does the source give for KQGSMGFRFIPVLFPNAKKEHVPT [N6G] here?
**A.** 1.56

**Q.** Which protein stability index does the source give for KQGSMQFRFIPVLFPNAKKEHVPT [N6Q] here?
**A.** 1.81

**Q.** For KQGSMCFRFIPVLFPNAKKEHVPT [N6C], which protein stability index is on record?
**A.** 1.67

**Q.** Which protein stability index does the source give for KQGSMHFRFIPVLFPNAKKEHVPT [N6H] here?
**A.** 1.72

**Q.** Which protein stability index does the source give for KQGSMRFRFIPVLFPNAKKEHVPT [N6R] here?
**A.** 1.66

**Q.** With KQGSMPFRFIPVLFPNAKKEHVPT [N6P] as the variant, how does the protein stability index read?
**A.** 2.44

**Q.** For KQGSMLFRFIPVLFPNAKKEHVPT [N6L], which protein stability index is on record?
**A.** 1.81

**Q.** With KQGSMAFRFIPVLFPNAKKEHVPT [N6A] as the variant, how does the protein stability index read?
**A.** 1.76

**Q.** For KQGSMNFRFIPVSFPNAKKEHVPT [L13S], which protein stability index is on record?
**A.** 2.14

**Q.** Which protein stability index does the source give for KQGSMNFRFIPVYFPNAKKEHVPT [L13Y] here?
**A.** 1.82

**Q.** With KQGSMNFRFIPVFFPNAKKEHVPT [L13F] as the variant, how does the protein stability index read?
**A.** 2.04

**Q.** For KQGSMNFRFIPVVFPNAKKEHVPT [L13V], which protein stability index is on record?
**A.** 2.01

**Q.** Which protein stability index does the source give for KQGSMNFRFIPVEFPNAKKEHVPT [L13E] here?
**A.** 2.88

**Q.** Which protein stability index does the source give for KQGSMNFRFIPVIFPNAKKEHVPT [L13I] here?
**A.** 1.75

**Q.** Which protein stability index does the source give for KQGSMNFRFIPVPFPNAKKEHVPT [L13P] here?
**A.** 1.87

**Q.** Which protein stability index does the source give for KQGSMNFRFIPVHFPNAKKEHVPT [L13H] here?
**A.** 2.38

**Q.** With KQGSMNFRFIPVRFPNAKKEHVPT [L13R] as the variant, how does the protein stability index read?
**A.** 1.93

**Q.** For KQGSMNFRFIPGLFPNAKKEHVPT [V12G], which protein stability index is on record?
**A.** 1.96

**Q.** Which protein stability index does the source give for KQGSMNFRFIPILFPNAKKEHVPT [V12I] here?
**A.** 2.14

**Q.** For KQGSMNFRFIPDLFPNAKKEHVPT [V12D], which protein stability index is on record?
**A.** 2.17

**Q.** Which protein stability index does the source give for KQGSMNFRFIPRLFPNAKKEHVPT [V12R] here?
**A.** 2.49

**Q.** With KQGSMNFRFIPVLFPNAKKESVPT [H21S] as the variant, how does the protein stability index read?
**A.** 2.07

**Q.** Which protein stability index does the source give for KQGSMNFRFIPVLFPNAKKECVPT [H21C] here?
**A.** 2.02

**Q.** Which protein stability index does the source give for KQGSMNFRFIPVLFPNAKKEQVPT [H21Q] here?
**A.** 1.78

**Q.** For KQGSMNFRFIPVLFPNAKKEGVPT [H21G], which protein stability index is on record?
**A.** 2.3

**Q.** With KQGSMNFRFIPVLFPNAKKEMVPT [H21M] as the variant, how does the protein stability index read?
**A.** 2.13

**Q.** With KQGSMNFRFIPVLFPNAKKEAVPT [H21A] as the variant, how does the protein stability index read?
**A.** 2.19

**Q.** Which protein stability index does the source give for KQGSMNFRFIPVLFPNAKKEPVPT [H21P] here?
**A.** 2.14

**Q.** Which protein stability index does the source give for KQGSMNFRLIPVLFPNAKKEHVPT [F9L] here?
**A.** 2.44

**Q.** For KQGSMNFREIPVLFPNAKKEHVPT [F9E], which protein stability index is on record?
**A.** 3.94

**Q.** For KQGSMNFRAIPVLFPNAKKEHVPT [F9A], which protein stability index is on record?
**A.** 3.43

**Q.** With KQGSMNFRWIPVLFPNAKKEHVPT [F9W] as the variant, how does the protein stability index read?
**A.** 2.31

**Q.** With KQGSMNFRNIPVLFPNAKKEHVPT [F9N] as the variant, how does the protein stability index read?
**A.** 3.56

**Q.** For KQGSMNFRSIPVLFPNAKKEHVPT [F9S], which protein stability index is on record?
**A.** 3.2

**Q.** With KQGSMNFRIIPVLFPNAKKEHVPT [F9I] as the variant, how does the protein stability index read?
**A.** 2.06

**Q.** Which protein stability index does the source give for KQGSMNFRRIPVLFPNAKKEHVPT [F9R] here?
**A.** 2.84

**Q.** For KQGSMNFRPIPVLFPNAKKEHVPT [F9P], which protein stability index is on record?
**A.** 3.22

**Q.** With KQGSMNFRGIPVLFPNAKKEHVPT [F9G] as the variant, how does the protein stability index read?
**A.** 3.17

**Q.** Which protein stability index does the source give for KQGSMNFRQIPVLFPNAKKEHVPT [F9Q] here?
**A.** 3.3

Variants of: B2
Assay: as above
Details: c terminus: a fixed tail appended

**Q.** Which protein stability index does the source give for PSNGRIDKKQLIAKKIKLTAEAEE [I8K] here?
**A.** 3.64

**Q.** With PSNGRIFIKQLIAKKIKLTAEAEE [D7F] as the variant, how does the protein stability index read?
**A.** 2.83

**Q.** With PSNGRIDIKQLIAKKIKLDAEAEE [T19D] as the variant, how does the protein stability index read?
**A.** 4.18
